Results as given in article PMC3663545, “Allosteric Activation of Trypanosomatid Deoxyhypusine Synthase by a Catalytically Dead Paralog*^([image sbox.jpg])^♦” (The Journal of Biological Chemistry, 2013).

Columns and labels:
TbDHSc-TbDHSp = target: T1, TbDHSc-TbDHSp (Trypanosoma brucei, UniProt Q38BX0+Q4GZD1); experiment: [3H]spermidine incorporation into eIF5A, nitrocellulose filter binding assay; assay type: biochemical
T1 construct: gene DHSc; His6-SUMO-TbDHSc co-expressed with tagless TbDHSp in E. coli; SUMO tag cut with Ulp1, tag-free; 50 kDa + 37 kDa; 2:2 heterotetramer, 175 kDa
T1 sequence (Q38BX0 1-461): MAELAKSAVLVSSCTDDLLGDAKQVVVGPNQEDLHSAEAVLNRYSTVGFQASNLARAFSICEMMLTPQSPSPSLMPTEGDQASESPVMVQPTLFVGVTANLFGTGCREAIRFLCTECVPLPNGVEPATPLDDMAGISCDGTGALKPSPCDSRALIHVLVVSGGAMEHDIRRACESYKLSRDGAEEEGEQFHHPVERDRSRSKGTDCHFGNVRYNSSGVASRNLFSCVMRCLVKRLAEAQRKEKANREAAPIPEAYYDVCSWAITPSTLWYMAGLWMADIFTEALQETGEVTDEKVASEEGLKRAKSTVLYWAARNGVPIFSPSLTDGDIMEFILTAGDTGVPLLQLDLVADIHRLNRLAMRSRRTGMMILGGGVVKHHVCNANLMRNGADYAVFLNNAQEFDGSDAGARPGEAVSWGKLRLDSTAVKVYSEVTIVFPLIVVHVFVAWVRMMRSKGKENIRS
T1 sequence (Q4GZD1 1-342): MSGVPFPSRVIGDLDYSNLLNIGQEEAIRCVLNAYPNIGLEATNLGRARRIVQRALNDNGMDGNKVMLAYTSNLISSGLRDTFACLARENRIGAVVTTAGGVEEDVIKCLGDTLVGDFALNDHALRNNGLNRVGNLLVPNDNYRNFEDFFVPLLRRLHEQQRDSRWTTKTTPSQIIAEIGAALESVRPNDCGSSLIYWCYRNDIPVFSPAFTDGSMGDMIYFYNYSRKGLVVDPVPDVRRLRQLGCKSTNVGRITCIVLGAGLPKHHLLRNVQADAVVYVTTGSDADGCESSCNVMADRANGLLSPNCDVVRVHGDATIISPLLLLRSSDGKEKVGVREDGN
Text: [3H]spermidine incorporation into eIF5A, nitrocellulose filter binding assay on TbDHSc-TbDHSp | GC7 inhibited the activity of TbDHSc-TbDBHSp and the growth of BSF cells at similar concentrations

[1] = substrate: NC(=O)c1ccc[n+]([C@@H]2O[C@H](COP(=O)(O)OP(=O)(O)OC[C@H]3O[C@@H](n4cnc5c(N)ncnc54)[C@H](O)[C@@H]3O)[C@@H](O)[C@H]2O)c1; experiment: as above; assay type: biochemical, Trypanosoma brucei; settings: 100 μM TbeIF5A, 100 μM spermidine, pH 9.3 glycine-NaOH, 37 °C, 1 mM DTT, varied: cofactor
Text: (§1) [3H]spermidine incorporation into eIF5A, nitrocellulose filter binding assay on TbDHSc-TbDHSp

[2] = substrate: NCCCCNCCCN; experiment: as above; assay type: biochemical, Trypanosoma brucei; settings: 1 mM NAD+, 100 μM TbeIF5A, pH 9.3 glycine-NaOH, 37 °C, 1 mM DTT, labelled compound
Text: as §1

[3] = target: T2, TbDHSc (T. brucei deoxyhypusine synthase, catalytic subunit), recombinant, expressed as His6-SUMO-TbDHSc (T. brucei, UniProt Q38BX0 1-461); experiment: AUC; sedimentation velocity of the purified TbDHSc-TbDHSp complex at A280 0.7, 0.2 and 0.05 in 50 mM Hepes, 150 mM NaCl, pH 8.0; 20 °C, 40,000 rpm; interference data analysed with SEDFIT c(s); settings: both partners purified
T2 construct: T. brucei deoxyhypusine synthase catalytic subunit (TbDHSc), TriTrypDB Tb927.10.2750; open reading frame cloned into pE-SUMO Kan; 50 kDa on SDS-PAGE; it was removed with Ulp1 before gel filtration and sedimentation velocity; not shown: His6-SUMO, N-terminal, cleaved
T2 sequence (looked up): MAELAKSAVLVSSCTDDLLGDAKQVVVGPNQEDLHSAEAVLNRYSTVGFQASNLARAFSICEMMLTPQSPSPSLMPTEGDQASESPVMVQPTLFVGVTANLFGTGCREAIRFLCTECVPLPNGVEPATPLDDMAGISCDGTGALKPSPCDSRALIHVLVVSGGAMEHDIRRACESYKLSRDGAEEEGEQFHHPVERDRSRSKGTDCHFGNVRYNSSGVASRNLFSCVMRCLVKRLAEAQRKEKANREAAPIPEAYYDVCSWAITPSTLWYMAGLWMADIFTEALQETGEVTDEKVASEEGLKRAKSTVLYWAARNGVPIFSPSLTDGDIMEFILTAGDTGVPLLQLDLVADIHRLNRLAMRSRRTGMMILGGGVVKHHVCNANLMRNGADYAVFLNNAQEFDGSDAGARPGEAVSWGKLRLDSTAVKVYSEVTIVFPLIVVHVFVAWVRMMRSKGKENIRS

For `N=C(N)NCCCCCCCN` [GC7], the IC50 (TbDHSc-TbDHSp) was 1500 ± 150 nM.

B1: TbDHSc-TbDHSp (Trypanosoma brucei brucei TREU927) (protein)
chain 1: MAELAKSAVLVSSCTDDLLGDAKQVVVGPNQEDLHSAEAVLNRYSTVGFQASNLARAFSICEMMLTPQSPSPSLMPTEGDQASESPVMVQPTLFVGVTANLFGTGCREAIRFLCTECVPLPNGVEPATPLDDMAGISCDGTGALKPSPCDSRALIHVLVVSGGAMEHDIRRACESYKLSRDGAEEEGEQFHHPVERDRSRSKGTDCHFGNVRYNSSGVASRNLFSCVMRCLVKRLAEAQRKEKANREAAPIPEAYYDVCSWAITPSTLWYMAGLWMADIFTEALQETGEVTDEKVASEEGLKRAKSTVLYWAARNGVPIFSPSLTDGDIMEFILTAGDTGVPLLQLDLVADIHRLNRLAMRSRRTGMMILGGGVVKHHVCNANLMRNGADYAVFLNNAQEFDGSDAGARPGEAVSWGKLRLDSTAVKVYSEVTIVFPLIVVHVFVAWVRMMRSKGKENIRS
chain 2: MSGVPFPSRVIGDLDYSNLLNIGQEEAIRCVLNAYPNIGLEATNLGRARRIVQRALNDNGMDGNKVMLAYTSNLISSGLRDTFACLARENRIGAVVTTAGGVEEDVIKCLGDTLVGDFALNDHALRNNGLNRVGNLLVPNDNYRNFEDFFVPLLRRLHEQQRDSRWTTKTTPSQIIAEIGAALESVRPNDCGSSLIYWCYRNDIPVFSPAFTDGSMGDMIYFYNYSRKGLVVDPVPDVRRLRQLGCKSTNVGRITCIVLGAGLPKHHLLRNVQADAVVYVTTGSDADGCESSCNVMADRANGLLSPNCDVVRVHGDATIISPLLLLRSSDGKEKVGVREDGN
notes: His6-SUMO-TbDHSc co-expressed with tagless TbDHSp in E. coli; SUMO tag cut with Ulp1, tag-free; 50 kDa + 37 kDa; 2:2 heterotetramer, 175 kDa
B1 showed a Km [1] of 82 ± 16 µM, a kcat [1] of 0.018 ± 0.001 s⁻¹ and a Km [2] of 43 ± 5 µM. It also gave a kcat [2] of 0.015 ± 0.001 s⁻¹.

B2: TbDHSp (T. brucei deoxyhypusine synthase prozyme (activating) subunit), recombinant, untagged (natural protein, UniProt Q4GZD1 1-342, looked up)
chain: MSGVPFPSRVIGDLDYSNLLNIGQEEAIRCVLNAYPNIGLEATNLGRARRIVQRALNDNGMDGNKVMLAYTSNLISSGLRDTFACLARENRIGAVVTTAGGVEEDVIKCLGDTLVGDFALNDHALRNNGLNRVGNLLVPNDNYRNFEDFFVPLLRRLHEQQRDSRWTTKTTPSQIIAEIGAALESVRPNDCGSSLIYWCYRNDIPVFSPAFTDGSMGDMIYFYNYSRKGLVVDPVPDVRRLRQLGCKSTNVGRITCIVLGAGLPKHHLLRNVQADAVVYVTTGSDADGCESSCNVMADRANGLLSPNCDVVRVHGDATIISPLLLLRSSDGKEKVGVREDGN
notes: T. brucei deoxyhypusine synthase prozyme subunit (TbDHSp), catalytically dead paralog, TriTrypDB Tb927.1.870; open reading frame cloned untagged into the HindIII-KpnI site of pT7-FLAG-MAT-Tag-2 with a stop codon inserted; 37 kDa on SDS-PAGE; the vector's C-terminal tag was removed by insertion of a stop codon; also called tagless TbDHSp; untagged TbDHSp
B2 was tested, and the “stoichiometry N” value [3] was 1 TbDHSp per TbDHSc (2:2 heterotetramer).
